# Test results reported in US20150344570A1 (published 2015).
# T1: FcγRIIb extracellular domain with C-terminal His tag (human, UniProt P31994 43-217)
# T1 construct: extracellular domain; expressed in FreeStyle293 cells; analyte in Biacore; also called FcgRIIb; 2b
# T1 sequence (looked up): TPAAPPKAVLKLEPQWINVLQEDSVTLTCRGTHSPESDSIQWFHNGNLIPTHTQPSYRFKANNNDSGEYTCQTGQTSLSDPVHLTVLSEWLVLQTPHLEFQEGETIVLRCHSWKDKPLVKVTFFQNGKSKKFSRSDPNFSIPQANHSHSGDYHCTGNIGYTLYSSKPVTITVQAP
# T2: FcγRIIb extracellular domain with C-terminal His tag (human, UniProt P31994 43-217)
# T2 construct: extracellular domain; soluble analyte in Biacore; also called FcgRIIb; not shown: His tag at the C terminus
# T2 sequence (looked up): T1 sequence (looked up)
# B1: GpH7-A5/GpH7-B3 variant Y300_16H/GpL16-k0 (antibody, human IgG1, kappa)
# heavy 1: not shown
# heavy 2: not shown
# light: DIVMTQSPLSLPVTPGEPASISCQASESLVHSNRNTYLHWYLQKPGQSPQLLIYKVSNRFSGVPDRFSGSGSGTDFTLKISRVEAEDVGVYYCSQNTHVPPTFGQGTKVEIERTVAAPSVFIFPPSDEQLKSGTASVVCLLNNFYPREAKVQWKVDNALQSGNSQESVTEQDSKDSTYSLSSTLTLSKADYEKHKVYACEVTHQGLSSPVTKSFNRGEC
# notes: He Ab; IgG1, mutation in one H chain
# B2: GpH7-A5/GpH7-B3 variant E333_05P/GpL16-k0 (antibody, human IgG1, kappa)
# heavy 1: not shown
# heavy 2: not shown
# light: B1 light
# notes: change in the GpH7-B3 H chain only; also called He Ab
# B3: GpH7-A5/GpH7-B3 variant A330_04F/GpL16-k0 (antibody, human IgG1, kappa)
# heavy 1: not shown
# heavy 2: not shown
# light: B1 light
# notes: as for B2
# B4: GpH7-A5/GpH7-B3 variant E333_07I/GpL16-k0 (antibody, human IgG1, kappa)
# heavy 1: not shown
# heavy 2: not shown
# light: B1 light
# notes: as for B2
# B5: GpH7-A5/GpH7-B3 variant A327_06M/GpL16-k0 (antibody, human IgG1, kappa)
# heavy 1: not shown
# heavy 2: not shown
# light: B1 light
# notes: as for B2
# B6: GpH7-A5/GpH7-B3 variant A330_16H/GpL16-k0 (antibody, human IgG1, kappa)
# heavy 1: not shown
# heavy 2: not shown
# light: B1 light
# notes: as for B2
# B7: GpH7-A5/GpH7-B3 variant A330_11K/GpL16-k0 (antibody, human IgG1, kappa)
# heavy 1: not shown
# heavy 2: not shown
# light: B1 light
# notes: as for B2
# B8: GpH7-A5/GpH7-B3 variant K334_09D/GpL16-k0 (antibody, human IgG1, kappa)
# heavy 1: not shown
# heavy 2: not shown
# light: B1 light
# notes: as for B2
# B9: GpH7-A5/GpH7-B3 variant E333_15Y/GpL16-k0 (antibody, human IgG1, kappa)
# heavy 1: not shown
# heavy 2: not shown
# light: B1 light
# notes: as for B2
# B10: GpH7-A5/GpH7-B3 variant A330_08L/GpL16-k0 (antibody, human IgG1, kappa)
# heavy 1: not shown
# heavy 2: not shown
# light: B1 light
# notes: as for B2
# B11: GpH7-A5/GpH7-B3 variant K334_01G/GpL16-k0 (antibody, human IgG1, kappa)
# heavy 1: not shown
# heavy 2: not shown
# light: B1 light
# notes: as for B2
# B12: GpH7-A5/GpH7-B3 variant A330_20W/GpL16-k0 (antibody, human IgG1, kappa)
# heavy 1: not shown
# heavy 2: not shown
# light: B1 light
# notes: as for B2
# B13: GpH7-A5/GpH7-B3 variant E333_01G/GpL16-k0 (antibody, human IgG1, kappa)
# heavy 1: not shown
# heavy 2: not shown
# light: B1 light
# notes: as for B2
# B14: GpH7-A5/GpH7-B3 variant P329_02A/GpL16-k0 (antibody, human IgG1, kappa)
# heavy 1: not shown
# heavy 2: not shown
# light: B1 light
# notes: as for B2
# B15: GpH7-A5/GpH7-B3 variant E333_14T/GpL16-k0 (antibody, human IgG1, kappa)
# heavy 1: not shown
# heavy 2: not shown
# light: B1 light
# notes: as for B2
# B16: GpH7-A5/GpH7-B3 variant I336_03V/GpL16-k0 (antibody, human IgG1, kappa)
# heavy 1: not shown
# heavy 2: not shown
# light: B1 light
# notes: as for B2
# B17: GpH7-A5/GpH7-B3 variant A330_10E/GpL16-k0 (antibody, human IgG1, kappa)
# heavy 1: not shown
# heavy 2: not shown
# light: B1 light
# notes: as for B2
# B18: GpH7-A5/GpH7-B3 variant S324_10E/GpL16-k0 (antibody, human IgG1, kappa)
# heavy 1: not shown
# heavy 2: not shown
# light: B1 light
# notes: as for B2
# B19: GpH7-A5/GpH7-B3 variant A330_07I/GpL16-k0 (antibody, human IgG1, kappa)
# heavy 1: not shown
# heavy 2: not shown
# light: B1 light
# notes: as for B2
# B20: GpH7-A5/GpH7-B3 variant E333_12R/GpL16-k0 (antibody, human IgG1, kappa)
# heavy 1: not shown
# heavy 2: not shown
# light: B1 light
# notes: as for B2
# B21: GpH7-A5/GpH7-B3 variant A327_13S/GpL16-k0 (antibody, human IgG1, kappa)
# heavy 1: not shown
# heavy 2: not shown
# light: B1 light
# notes: as for B2
# B22: GpH7-A5/GpH7-B3 variant I336_02A/GpL16-k0 (antibody, human IgG1, kappa)
# heavy 1: not shown
# heavy 2: not shown
# light: B1 light
# notes: as for B2
# B23: GpH7-A5/GpH7-B3 variant Y300_20W/GpL16-k0 (antibody, human IgG1, kappa)
# heavy 1: not shown
# heavy 2: not shown
# light: B1 light
# notes: as for B1
# Experiments:
# [1] = biological target: T3, FcγRIa extracellular domain with C-terminal His tag (human, UniProt P12314 16-292); assay: SPR (Biacore), captured antibody, FcγR as analyte; relative binding
# T3 construct: extracellular domain; expressed in FreeStyle293 cells; analyte in Biacore; also called FcgRI; 1a
# T3 sequence (P12314 16-292): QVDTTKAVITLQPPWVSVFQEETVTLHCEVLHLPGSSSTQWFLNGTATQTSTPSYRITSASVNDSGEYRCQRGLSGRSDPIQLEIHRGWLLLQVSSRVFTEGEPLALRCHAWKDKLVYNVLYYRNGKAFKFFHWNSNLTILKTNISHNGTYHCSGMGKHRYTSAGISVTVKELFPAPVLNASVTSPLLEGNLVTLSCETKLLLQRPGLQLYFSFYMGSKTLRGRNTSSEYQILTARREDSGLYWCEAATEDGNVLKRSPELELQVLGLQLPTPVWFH
# [2] = biological target: T1, FcγRIIb extracellular domain with …; assay: as above
# [3] = biological target: T4, FcγRIa extracellular domain with C-terminal His tag (human, UniProt P12314 16-292); assay: SPR, binding relative to GpH7-A5/GpH7-B3/GpL16-k0 = 100
# T4 construct: extracellular domain; soluble analyte in Biacore; also called FcgRI; not shown: His tag at the C terminus
# T4 sequence (P12314 16-292): as above
# [4] = biological target: T2, FcγRIIb extracellular domain with …; assay: as above
Binder,He/Con_1a [1],He/Con_2b [2],He/Con_1a [3],He/Con_2b [4]
B1,111 % of HeCon Ab (GpH7-A5/GpH7-B3/GpL16-k0 = 100),87 % of HeCon Ab (GpH7-A5/GpH7-B3/GpL16-k0 = 100),,
B2,,,102 % of control,97.7 % of control
B3,,,106 % of control,92.8 % of control
B4,,,102 % of control,96.2 % of control
B5,,,103 % of control,59.5 % of control
B6,,,106 % of control,87.6 % of control
B7,,,103 % of control,95 % of control
B8,,,106 % of control,94.8 % of control
B9,,,101 % of control,94.4 % of control
B10,,,107 % of control,70.5 % of control
B11,,,104 % of control,92.5 % of control
B12,,,108 % of control,76.1 % of control
B13,,,103 % of control,81.4 % of control
B14,,,102 % of control,40.5 % of control
B15,,,102 % of control,86.1 % of control
B16,,,105 % of control,90.3 % of control
B17,,,107 % of control,70.1 % of control
B18,,,105 % of control,77.4 % of control
B19,,,105 % of control,67.1 % of control
B20,,,102 % of control,80.4 % of control
B21,,,102 % of control,79.5 % of control
B22,,,106 % of control,84.9 % of control
B23,112 % of HeCon Ab (GpH7-A5/GpH7-B3/GpL16-k0 = 100),84.1 % of HeCon Ab (GpH7-A5/GpH7-B3/GpL16-k0 = 100),,
